Where “and” joins values, the source holds several entries; their conditions need not be identical. Identical values can stand only once.
Molecular target: VHH-72-C13 (llama)
Assay: electrochemical titration (differential pulse voltammetry)

Sequence of VHH-72-C13 (llama) (VHH, as listed by the source): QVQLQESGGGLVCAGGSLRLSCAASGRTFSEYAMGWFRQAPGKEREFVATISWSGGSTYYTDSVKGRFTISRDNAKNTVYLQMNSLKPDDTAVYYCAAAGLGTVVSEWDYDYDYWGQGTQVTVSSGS

For “SARS-CoV-2 spike receptor binding domain (RBD), recombinant (from UniProt P0DTC2 319-541) (domain or fragment)”, the half saturation point (Langmuir isotherm) was 3.7 nM and 7.5 nM.

— publication PMC9126950
